Data published in patent EP0811064B1.
Where “and” joins values, the source holds several entries; their conditions need not be identical. Equal entries are not always repeated.

target: full length human mpl receptor expressed on 32D-mpl cells (human) (UniProt P40238); experiment: cell-based or functional assay

In Vitro Activity (units/ml) | Specific Activity (units/ ng) | IN VITRO ACTIVITY U/mg X10E6 [U/mg] | Substance
5940 units/ml and 9690 units/ml | 291 units/ng and 288 units/ng |  | mpl ligand analog N10 [Asn^120, Thr^122] mpl ligand 1-174
1970 units/ml | 188 units/ng |  | mpl ligand analog N9 [Asn^92] mpl ligand 1-174
6420 units/ml | 247 units/ng | 9.2e+07 | mpl ligand analog N15 [Asn^30, Thr^32, Asn^120, Thr^122] mpl ligand 1-174
< 10 units/ml | < 8 units/ng |  | mpl ligand analog N11 [Ser^36, Asn^38, Thr^40] mpl ligand 1-174
8830 units/ml | 232 units/ng | 6e+07 | mpl ligand analog N4 [Asn^30, Thr^32] mpl ligand 1-174
636 units/ml | 344 units/ng |  | mpl ligand analog N3 [Asn^25] mpl ligand 1-174
18000 units/ml | 269 units/ng |  | mpl ligand analog N13 [Asn^53, Thr^55] mpl ligand 1-174
< 10 units/ml | < 8 units/ng |  | mpl ligand analog N5 [Asn^38, Thr^40] mpl ligand 1-174
2660 units/ml and 3080 units/ml | 443 units/ng and 655 units/ng |  | mpl ligand analog N7 [Asn^82, Ala^83] mpl ligand 1-174
 |  | 8.6e+07 | human mpl ligand 1-163 (CHO)
4850 units/ml | 271 units/ng |  | mpl ligand analog N14 [Asn^58, Thr^60] mpl ligand 1-174
 |  | 1.3e+07 | Met-Lys-mpl ligand 1-174 (E. coli)
 |  | 4.1e+07 | human mpl ligand 1-332 (CHO)
< 10 units/ml | < 22 units/ng |  | mpl ligand analog N6 [Asn^86] mpl ligand 1-174

target: full length human mpl receptor expressed on 32D-mpl cells (human) (UniProt P40238); experiment: cell-based or functional assay; remark: another data set of the same source

In Vitro Activity (units/ml) | Specific Activity (units/ ng) [units/ng] | Substance
7000 | 156 | mpl ligand analog N15 [Asn^30, Thr^32, Asn^120, Thr^122] mpl ligand 1-174
458 | 86 | mpl ligand analog N24 [Asn^57, Ser^59] mpl ligand 1-174
4380 | 146 | mpl ligand analog N21 [Asn^54, Ser^56] mpl ligand 1-174
3900 | 156 | mpl ligand analog N38 [Thr^163, Asn^164, Thr^166] mpl ligand 1-174
856 | 428 | mpl ligand analog N22 [Asn^52, Thr^54] mpl ligand 1-174
19700 | 147 | mpl ligand analog N40 (N4+N10+N36+N38 changes in mpl ligand 1-199)
96 | 106 | mpl ligand analog N26 [Asn^118, Ser^120] mpl ligand 1-174
4500 | 141 | mpl ligand analog N37 [Asn^56] mpl ligand 1-174
13100 | 76 | mpl ligand analog N35 (N4+N23+N30 changes in mpl ligand 1-199)
15600 | 122 | mpl ligand analog N30 [Thr^163, Asn^164] mpl ligand 1-174
123 | 559 | mpl ligand analog N25 [Asn^81, Thr^83] mpl ligand 1-174
11 |  | mpl ligand 1-191 (N17)
5810 | 121 | mpl ligand analog N36 [Asn^55, Thr^57] mpl ligand 1-174
1060 | 96 | mpl ligand analog N23 [Asn^55'(i), Thr^57] mpl ligand 1-174
13500 | 120 | mpl ligand analog N34 [Asn^30, Thr^32, Asn^55'(i), Thr^57, Thr^163, Asn^164] mpl ligand 1-174
17700 | 139 | mpl ligand analog N39 [Asn^30, Thr^32, Asn^120, Thr^122, Asn^55, Thr^57, Thr^163, Asn^164, Thr^166] mpl ligand 1-174
19000 | 122 | mpl ligand 1-199 (N31)
9280 |  | mpl ligand 1-183 (N16)
338 | 75 | mpl ligand analog N27 [Asn^119, Ser^121] mpl ligand 1-174
5 | 2.5 | mpl ligand analog N18 [Asn^23, Ser^25] mpl ligand 1-174
10100 | 129 | mpl ligand analog N33 [Asn^30, Thr^32, Asn^120, Thr^122, Asn^55'(i), Thr^57] mpl ligand 1-174
< 10 |  | mpl ligand analog N20 [Asn^39, Ser^41] mpl ligand 1-174
1630 | 108 | mpl ligand analog N29 [Asn^30, Ser^32, Asn^120, Ser^122] mpl ligand 1-174
